Drawing on paper PMC6479836, “Interaction of Nerve Growth Factor β with Adiponectin and SPARC Oppositely Modulates its Biological Activity” (International Journal of Molecular Sciences, 2019), this text covers Kd, koff and kon for five molecules.

T1: Recombinant murine full-length adiponectin (murine, UniProt Q60994 18-247)
T1 construct: also called fADPN; source: bought: Biovender Laboratory Medicine, Inc
T1 sequence (looked up): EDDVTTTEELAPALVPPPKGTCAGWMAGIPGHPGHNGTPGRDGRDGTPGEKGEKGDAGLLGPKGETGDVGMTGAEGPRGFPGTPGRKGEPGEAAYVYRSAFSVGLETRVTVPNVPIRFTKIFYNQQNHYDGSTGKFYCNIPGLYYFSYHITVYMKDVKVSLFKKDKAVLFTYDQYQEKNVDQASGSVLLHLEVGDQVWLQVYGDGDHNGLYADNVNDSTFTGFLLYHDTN

B1: Nerve growth factor β (NGFβ) from mouse submaxillary glands (ligand, UniProt P01139 122-241, looked up)
chain: SSTHPVFHMGEFSVCDSVSVWVGDKTTATDIKGKEVTVLAEVNINNSVFRQYFFETKCRASNPVESGCRGIDSKHWNSYCTTTHTFVKALTTDEKQAAWRFIRIDTACVCVLSRKATRRG
notes: beta-nerve growth factor, mouse, the beta chain from submaxillary glands; The same protein was also tested after boiling (denatured), as a control; source: from mouse submaxillary glands; bought: Alomone Labs
B2: Recombinant human platelet-derived growth factor-BB (PDGF-BB) (ligand, UniProt P01127 82-190, looked up)
chain: SLGSLTIAEPAMIAECKTRTEVFEISRRLIDRTNANFLVWPPCVEVQRCSGCCNNRNVQCRPTQVQLRPVQVRKIEIVRKKPIFKKATVTLEDHLACKCETVAAARPVT
notes: PDGF B chain, human, recombinant; The two copies follow from the printed name BB; source: bought: Wako Pure Chemical

Secreted protein, acidic and rich in cysteine (SPARC), sequence (P09486 18-303): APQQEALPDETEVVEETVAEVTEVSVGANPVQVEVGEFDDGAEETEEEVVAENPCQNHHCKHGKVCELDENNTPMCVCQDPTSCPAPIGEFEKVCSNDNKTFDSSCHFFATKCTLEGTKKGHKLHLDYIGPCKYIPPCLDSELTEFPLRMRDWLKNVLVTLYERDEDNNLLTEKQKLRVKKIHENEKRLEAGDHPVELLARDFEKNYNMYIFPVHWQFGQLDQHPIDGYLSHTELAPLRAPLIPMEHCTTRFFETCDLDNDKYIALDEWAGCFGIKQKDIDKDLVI

One test addresses Secreted protein, acidic and rich in cysteine (SPARC) (UniProt P09486). Kind of test: SPR; BIAcore X; SPARC immobilised on CM5 chip (3574 RU); growth factors as analytes in HBS-EP (10 mM HEPES, 150 mM NaCl, 0.005% Surfactant P20, pH 7.4), 37 °C, 20 µL/min, 105 s association, 120 s dissociation.
Conditions: not given
With “Recombinant human vascular endothelial growth factor VEGF-165 (ligand)”, the Kd worked out at 54.4 nM, the koff is 0.00413 s⁻¹ and the kon was found to be 75800 M⁻¹ s⁻¹.

The molecule “Recombinant human transforming growth factor β1 (TGFβ1) (from UniProt P01137 279-390) (ligand)” showed a Kd of 24300 nM, a koff of 0.0192 s⁻¹ and a kon of 790 M⁻¹ s⁻¹.

On to “Recombinant human basic fibroblast growth factor (FGF2) (from UniProt P09038 143-288) (ligand)”, for which the Kd worked out at 14400 nM, the koff came to 0.00195 s⁻¹ and the kon stood at 135 M⁻¹ s⁻¹.

In turn, B1 came in with a Kd of 59.4 nM, a koff of 0.011 s⁻¹ and a kon of 186000 M⁻¹ s⁻¹.

For the molecule B2, the Kd amounted to 24.3 nM, the koff amounted to 0.000903 s⁻¹ and the kon was found to be 37100 M⁻¹ s⁻¹.

Another test has as its target T1, Recombinant murine full-length …. Kind of test: SPR; BIAcore X; full length adiponectin immobilised on CM5 chip (2025 RU); growth factors as analytes in HBS-EP pH 7.4, 37 °C, 20 µL/min, 105 s association, 120 s dissociation. To be noted: both partners purified.
With B1, the Kd is 103 nM, the koff amounted to 0.00597 s⁻¹ and the kon came to 57600 M⁻¹ s⁻¹.

For the molecule B2, the dissociation constant Kd is 24.5 nM, the koff came to 2.82e-05 s⁻¹ and the kon came to 1150 M⁻¹ s⁻¹.

A further test concerns the target Recombinant murine globular adiponectin (murine). Kind of test: SPR; BIAcore X; globular adiponectin immobilised on CM5 chip (12707 RU); growth factors as analytes in HBS-EP pH 7.4, 37 °C, 20 µL/min, 105 s association, 120 s dissociation.
Conditions: not given
Regarding B1, the Kd came to 1260 nM, the koff was 0.0145 s⁻¹ and the on-rate constant (kon) turned out to be 11500 M⁻¹ s⁻¹.

Take B2: the Kd stood at 70.4 nM, the koff turned out to be 0.00738 s⁻¹ and the kon was found to be 105000 M⁻¹ s⁻¹.
